{
  "source": "patent US20050239730A1",
  "about": "“Plasmodium falciparum erythrocyte binding protein baebl for use as a vaccine” (priority 2001, published 2005)",
  "molecules": {"B1": {"name": "BAEBL: Plasmodium falciparum erythrocyte binding protein of the DBL-EBP family (SEQ ID NO: 2); here metabolically labeled protein from Dd2/Nm culture supernatant (protein, listed as Plasmodium falciparum)", "chain": "MKGYFNIYFLIPLIFLYNVIRINESIIGRTLYNRQDESSDISRVNSPELNNNHKTNIYDSDYEDVNNKLINSFVENKSVKKKRSLSFINNKTKSYDIIPPSYSYRNDKFNSLSENEDNSGNTNSNNFANTSEISIGKDNKQYTFIQKRTHLFACGIKRKSIKWICRENSEKITVCVPDRKIQLCVANFLNSRLETMEKFKEIFLISVNTEAKLLYNKNEGKDPSIFCNELRNSFSDFRSSFIGDDMDFGGNTDRVKGYINTKFSDYYKEKNVEKLNNIKKEWWEKNKANLWNHMIVNHKGNISKECAIIPAEEPQINLWIKEWNENFLMEKKRLFLNIKDKCVENKKYEACFGGCRLPCSSYTSFMKKSKTQMEVLTNLYKKKNSGVDKNNFLNDLFKKNNKNDLDDFFKNEKEYDDLCDCRYTATIIKSFLNGPAKNDVDIASQINVNDLRGFGCNYKSNNEKSWNCTGTFTNKFPGTCEPPRRQTLCLGRTYLLHRGHEEDYKEHLLGASIYEAQLLKYKYKEKDENALCSIIQNSYADLADIIKGSDIIKDYYGKKMEENLNKVNKDKKRNEESLKIFREKWWDENKENVWKVMSAVLKNKETCKDYDKFQKIPQFLRWFKEWGDDFCEKRKEKIYSFESFKVECKKKDCDENTCKNKCSEYKKWIDLKKSEYEKQVDKYTKDKNKKMYDNIDEVKNKEANVYLKEKSKECKDVNFDDKIFNESPNEYEDMCKKCDEIKYLNEIKYPKTKHDIYDIDTFSDTFGDGTPISINANINEQQSGKDTSNTGNSETSDSPVSHEPESDAAINVEKLSGDESSSETRGILDINDPSVTNNVNEVHDASNTQGSVSNTSDITNGHSESSLNRTTNAQDIKIGRSGNEQSDNQENSSHSSDNSGSLTIGQVPSEDNTQNTYDSQNPHRDTPNALASLPSDDKINEIEGFDSSRDSENGRGDTTSNTHDVRRTNIVSERRVNSHDFIRNGMANNNAHHQYITQIENNGIIRGQEESAGNSVNYKDNPKRSNFSSENDHKKNIQEYNSRDTKRVREEIIKLSKQNKCNNEYSMEYCTYSDERNSSPGPCSREERKKLCCQISDYCLKYFNFYSIEYYNCIKSEIKSPEYKCFKSEGQSSIPYFAAGGILVVIVLLLSSASRMGKSNEEYDIGESNIEATFEENNYLNKLSRIFNQEVQETNISDYSEYNYNEKNMY", "modifications": "metabolic label", "notes": "here metabolically labeled protein from Dd2/Nm culture supernatant"}},
  "tested_on": "human erythrocytes",
  "experiment": "Modified erythrocyte binding assay: absorption/elution of metabolically labeled parasite proteins followed by immunoprecipitation",
  "excerpt": "We have developed a new assay for measuring binding of BAEBL to erythrocytes. Previously, EBA-175 was identified in parasite proteins bound and eluted from human erythrocytes. Its identification was based on the fact that it was the most abundant and the highest molecular weight protein eluted from these erythrocytes. Lower molecular weight proteins may be proteolytic fragments of EBA-175 or products of different genes. To positively identify BAEBL, we immunoprecipitated BAEBL from proteins eluted from erythrocytes with anti-region II and anti-region VI.\nWe also modified the protocol in that we identified proteins removed from the supernatant by erythrocyte absorption. We determined the different quantities of erythrocytes required to remove BAEBL from the parasite supernatant. […] The protein was largely removed by absorbing twice with 50 μl of packed erythrocytes for some culture supernatants and by only one absorbtion with 50 μl for other supernatants. Therefore, on some samples, we absorbed with 25 μl, 50 μl once, and 50 μl twice for comparison between normal erythrocytes and mutant erythrocytes or enzyme-treated erythrocytes. The protein was also eluted from the first 50 μl of packed erythrocytes used for absorption.\nBlood was collected in 10% citrate-phosphate-dextrose (vol/vol) and stored for up to 4 weeks at 4° C. At the time of study, the erythrocytes were washed three times in incomplete media (RPMI-1640; Life Technologies, Rockville, Md.) with 25 mM HEPES and 0.36 mM hypoxanthine (Sigma, St. Louis, Mo.). For neuraminidase treatment, 5.5 ml of a 5% (vol/vol) suspension of the washed human erythrocytes in incomplete media were incubated twice with 3 milliunits of neuraminidase (Vibrio cholerae; CalBiochem, La Jolla, Calif.) for 2 hr at 37° C. each time. For trypsin treatment, washed human erythrocytes were incubated with 1 mg/ml of tosyl-phenylalanine-chloromethyl-ketone-treated trypsin (Sigma) for 2 hr at 37° C. After trypsin treatment, the cells were washed once in incomplete medium and incubated with 2 mg/ml soybean trypsin inhibitor (Sigma) for 10 min at room temperature. The cells were washed twice before use in a study.\nThe glycophorin A and glycophorin B null erythrocytes [En(a-) and S-s-U-, respectively and the glycophorin D null/glycophorin C modified erythrocytes (Gerbich cells) were frozen within a few days of receipt and thawed by the Red Cross method (Mallory, D. ed. 1993 Immunohematology Methods and Procedures American Red Cross, National Reference Laboratory, Rockville, Md., pp. 125-1-125-2). Blood from a Gerbich donor was collected in 10% (vol/vol) anticoagulant citrate-phosphate-dextrose.\nOther glycophorin C/D mutant cells (Leach, Gerbich, and Yus cells) had been stored in liquid nitrogen as frozen pellets (Judd, W. J. 1994 in: Methods in Immunohematology Montgomery Scientific Publications Durham, N.C., pp. 188-190) and thawed directly into PBS at 37° C.\nSoluble, metabolically labeled parasite proteins were obtained from culture supernatant of schizont-infected erythrocytes that released merozoites in the absence of uninfected erythrocytes. The parasites were left to lyse and release proteins into the culture supernatant. The Dd2/Nm clone of P. falciparum was cultured as previously described (Kaneko, O. et al. 2000 Mol Biochem Parasitol 110: […]) with the following exceptions. Schizont-infected erythrocytes (5×10^7 per ml of culture medium) were used during the metabolic labeling. The culture supernatant was ultracentrifuged in a Beckman Optima TLX Ultracentrifuge (Beckman, Fullerton, Calif.) at 40,000 rpm (98,600×g) for 10 min at 4° C. before storage at −70° C.\nProteins in the supernatant and in the diluted eluate were immunoprecipitated as previously described (Kaneko, O. et al. 2000 Mol Biochem Parasitol 110: 135-146) with the following exceptions. […]",
  "key": {"[1]": {"conditions": "glycophorin C/D null erythrocytes of the Leach phenotype, preliminary experiments"}},
  "data": [
    {"molecule": "B1", "values": [
      {"measurement": "Binding to En(a-) erythrocytes", "setting": "En(a-) erythrocytes, which lack glycophorin A", "result": "bound to these erythrocytes in a similar manner as to normal erythrocytes"},
      {"measurement": "Binding to S-s-U- erythrocytes", "setting": "S-s-U- erythrocytes that lacked glycophorin B", "result": "bound"},
      {"measurement": "Elution from Gerbich and normal erythrocytes", "setting": "fresh Gerbich erythrocytes vs normal erythrocytes", "result": "eluted from normal but not Gerbich erythrocytes"},
      {"measurement": "Absorption from culture supernatant by Gerbich cells compared with normal erythrocytes", "setting": "fresh blood from a person with the Gerbich mutation, two separate experiments", "result": "required twice as many Gerbich cells"},
      {"measurement": "Detection in eluate of Leach erythrocytes", "setting": "[1]", "result": "never detected"},
      {"measurement": "Detection in parasite supernatant absorbed with Leach erythrocytes", "setting": "[1]", "result": "not detected"},
      {"measurement": "Binding to neuraminidase-treated human erythrocytes", "setting": "neuraminidase-treated erythrocytes, Dd2/Nm culture supernatant", "result": "eliminated the binding"},
      {"measurement": "Elution from neuraminidase-treated normal erythrocytes", "setting": "neuraminidase-treated normal erythrocytes", "result": "did not elute"},
      {"measurement": "Binding to Gerbich erythrocytes", "setting": "pellet-frozen Gerbich (-2, -3, -4) erythrocytes", "result": "reduced binding"},
      {"measurement": "Binding to Yus erythrocytes", "setting": "pellet-frozen Yus (-2, -3, -4) erythrocytes", "result": "reduced binding"},
      {"measurement": "Binding to trypsin-treated human erythrocytes", "setting": "trypsin-treated erythrocytes, Dd2/Nm culture supernatant", "result": "eliminated the binding"}
    ]}
  ]
}
